From patent publication US20090149389A1 (PURDUE RESEARCH FOUNDATION, published 2009) come the findings set out here.

Test in all cases: cell-based or functional assay
The target of experiment [1] is PDGFRβ (h) (human (h), UniProt P09619 558-1106, limits assumed).
Experiment [2] concerns the target Tie2 (h) (human (h), UniProt Q02763 771-1124, limits assumed).
The target of experiment [3] is Abl (h) (human (h), UniProt P00519 27-1130, limits assumed).
The target in experiment [4] is AMPK (r) (rat (r), UniProt Q09137 1-552, limits assumed).
For experiment [5], the target named is CK2 (h) (human (h), UniProt P68400 1-391).
The target in experiment [6] is T1, DYRK2 (h) (human (h), UniProt Q92630 1-601, limits assumed).
T1 sequence (looked up): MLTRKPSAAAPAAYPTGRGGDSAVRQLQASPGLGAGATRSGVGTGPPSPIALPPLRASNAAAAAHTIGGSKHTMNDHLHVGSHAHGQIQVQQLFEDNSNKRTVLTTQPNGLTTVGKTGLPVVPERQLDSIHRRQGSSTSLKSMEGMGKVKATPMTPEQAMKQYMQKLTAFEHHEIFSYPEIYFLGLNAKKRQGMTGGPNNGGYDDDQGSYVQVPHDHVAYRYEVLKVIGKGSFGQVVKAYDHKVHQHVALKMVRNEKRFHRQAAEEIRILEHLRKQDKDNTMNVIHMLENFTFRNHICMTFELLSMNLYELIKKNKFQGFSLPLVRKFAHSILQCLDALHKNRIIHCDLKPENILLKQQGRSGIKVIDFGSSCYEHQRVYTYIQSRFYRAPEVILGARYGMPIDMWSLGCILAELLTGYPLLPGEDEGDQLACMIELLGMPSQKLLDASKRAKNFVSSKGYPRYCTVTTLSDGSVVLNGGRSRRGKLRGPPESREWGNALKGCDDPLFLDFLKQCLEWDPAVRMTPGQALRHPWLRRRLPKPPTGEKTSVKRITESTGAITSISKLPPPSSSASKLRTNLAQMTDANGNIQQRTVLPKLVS

Experiment [7] deals with GSK3β (h) (human (h), UniProt P49841 1-420).
Experiment [8] concerns the target IGF-IR (h) (human (h), UniProt P08069 959-1367, limits assumed).
Experiment [9] deals with T2, IRAK4 (h) (human (h), UniProt Q9NWZ3 1-460, limits assumed).
T2 sequence (looked up): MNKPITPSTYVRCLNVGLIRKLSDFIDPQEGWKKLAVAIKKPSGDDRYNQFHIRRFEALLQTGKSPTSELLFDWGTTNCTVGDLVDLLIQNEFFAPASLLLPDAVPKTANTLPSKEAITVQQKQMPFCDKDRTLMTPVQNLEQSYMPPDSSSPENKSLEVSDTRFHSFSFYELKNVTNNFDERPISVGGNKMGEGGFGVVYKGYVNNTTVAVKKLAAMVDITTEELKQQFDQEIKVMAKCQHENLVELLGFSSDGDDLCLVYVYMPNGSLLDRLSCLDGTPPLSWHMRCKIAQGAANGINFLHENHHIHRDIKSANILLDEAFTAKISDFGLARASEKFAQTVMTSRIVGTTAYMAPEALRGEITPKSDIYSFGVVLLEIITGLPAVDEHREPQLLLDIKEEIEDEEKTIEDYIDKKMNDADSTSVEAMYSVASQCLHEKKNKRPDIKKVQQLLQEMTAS

Experiment [10] has as its target Lck (h) (human (h), UniProt P06239 1-509).
Experiment [11] deals with L1MK1 (h) (human (h), UniProt P53667 285-638, limits assumed).
Experiment [12] deals with T3, MKK4 (m) (mouse (m), UniProt P47809 35-397, limits assumed).
T3 sequence (looked up): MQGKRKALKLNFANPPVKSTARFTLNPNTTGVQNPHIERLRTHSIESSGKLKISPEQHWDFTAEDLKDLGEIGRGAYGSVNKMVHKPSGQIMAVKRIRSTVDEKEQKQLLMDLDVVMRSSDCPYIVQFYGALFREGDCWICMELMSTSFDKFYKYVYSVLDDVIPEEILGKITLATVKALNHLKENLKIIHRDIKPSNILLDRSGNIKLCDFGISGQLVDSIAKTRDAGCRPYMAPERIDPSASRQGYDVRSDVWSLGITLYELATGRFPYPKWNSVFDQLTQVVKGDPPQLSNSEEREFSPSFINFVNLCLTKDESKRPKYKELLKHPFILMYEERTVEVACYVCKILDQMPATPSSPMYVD

Experiment [13] addresses PKCδ (h) (human (h), UniProt Q05655 1-676).
Experiment [14] addresses T4, PRAK (UniProt Q8IW41 1-473, limits assumed).
T4 sequence (looked up): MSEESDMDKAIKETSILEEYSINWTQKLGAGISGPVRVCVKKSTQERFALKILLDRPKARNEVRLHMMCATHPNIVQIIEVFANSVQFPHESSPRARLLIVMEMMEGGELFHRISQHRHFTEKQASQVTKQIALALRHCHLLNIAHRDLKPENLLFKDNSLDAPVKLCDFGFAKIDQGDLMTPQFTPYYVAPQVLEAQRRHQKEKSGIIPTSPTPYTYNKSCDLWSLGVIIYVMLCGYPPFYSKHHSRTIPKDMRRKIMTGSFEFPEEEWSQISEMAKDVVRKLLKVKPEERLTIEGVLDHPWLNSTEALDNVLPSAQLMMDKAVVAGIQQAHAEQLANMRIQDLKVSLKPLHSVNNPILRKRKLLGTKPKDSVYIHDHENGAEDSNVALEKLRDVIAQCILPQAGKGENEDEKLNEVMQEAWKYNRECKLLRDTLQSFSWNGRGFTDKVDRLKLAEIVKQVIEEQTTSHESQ

In experiment [15] the target is SAPK2 a (h) (human (h), UniProt Q16539 1-360).
Experiment [16] concerns the target Src(1-530) (h) (human (h), UniProt P12931 1-530).
Experiment [17] has as its target Syk (h) (human (h), UniProt P43405 1-635).

Sequence of CK2 (h) (P68400 whole entry): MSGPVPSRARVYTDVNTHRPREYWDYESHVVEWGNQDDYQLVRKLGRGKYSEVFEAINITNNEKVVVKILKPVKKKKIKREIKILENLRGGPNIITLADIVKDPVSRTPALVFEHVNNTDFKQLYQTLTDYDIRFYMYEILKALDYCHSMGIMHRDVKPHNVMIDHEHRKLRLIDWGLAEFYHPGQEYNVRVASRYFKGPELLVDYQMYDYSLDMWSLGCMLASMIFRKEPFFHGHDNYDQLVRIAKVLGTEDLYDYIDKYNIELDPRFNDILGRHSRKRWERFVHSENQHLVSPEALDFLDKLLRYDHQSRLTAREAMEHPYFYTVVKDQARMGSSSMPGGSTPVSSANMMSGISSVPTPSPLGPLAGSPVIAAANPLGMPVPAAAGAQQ
Sequence of SAPK2 a (h) (Q16539 whole entry): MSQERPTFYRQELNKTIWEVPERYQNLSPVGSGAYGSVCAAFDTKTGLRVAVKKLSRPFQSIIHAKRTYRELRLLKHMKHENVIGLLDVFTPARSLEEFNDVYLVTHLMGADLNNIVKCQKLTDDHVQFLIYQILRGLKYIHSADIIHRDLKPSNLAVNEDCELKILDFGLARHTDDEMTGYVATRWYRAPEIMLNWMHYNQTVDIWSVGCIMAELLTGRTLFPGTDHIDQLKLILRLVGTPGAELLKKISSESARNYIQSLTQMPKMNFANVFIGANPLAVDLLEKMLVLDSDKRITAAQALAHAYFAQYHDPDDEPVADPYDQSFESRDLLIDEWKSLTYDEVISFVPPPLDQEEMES
Sequence of IGF-IR (h) (P08069 959-1367 limits assumed): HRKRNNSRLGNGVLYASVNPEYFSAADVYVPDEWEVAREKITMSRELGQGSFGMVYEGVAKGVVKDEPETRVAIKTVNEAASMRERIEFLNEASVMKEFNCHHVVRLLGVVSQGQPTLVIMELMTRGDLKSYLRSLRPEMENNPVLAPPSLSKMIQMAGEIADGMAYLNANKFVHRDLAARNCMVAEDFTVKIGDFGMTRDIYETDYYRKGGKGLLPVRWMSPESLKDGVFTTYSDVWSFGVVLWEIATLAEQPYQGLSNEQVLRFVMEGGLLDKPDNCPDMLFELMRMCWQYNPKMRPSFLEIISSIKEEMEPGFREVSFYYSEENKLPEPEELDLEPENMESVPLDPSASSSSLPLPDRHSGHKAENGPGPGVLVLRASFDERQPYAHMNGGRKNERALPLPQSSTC
Sequence of GSK3β (h) (P49841 whole entry): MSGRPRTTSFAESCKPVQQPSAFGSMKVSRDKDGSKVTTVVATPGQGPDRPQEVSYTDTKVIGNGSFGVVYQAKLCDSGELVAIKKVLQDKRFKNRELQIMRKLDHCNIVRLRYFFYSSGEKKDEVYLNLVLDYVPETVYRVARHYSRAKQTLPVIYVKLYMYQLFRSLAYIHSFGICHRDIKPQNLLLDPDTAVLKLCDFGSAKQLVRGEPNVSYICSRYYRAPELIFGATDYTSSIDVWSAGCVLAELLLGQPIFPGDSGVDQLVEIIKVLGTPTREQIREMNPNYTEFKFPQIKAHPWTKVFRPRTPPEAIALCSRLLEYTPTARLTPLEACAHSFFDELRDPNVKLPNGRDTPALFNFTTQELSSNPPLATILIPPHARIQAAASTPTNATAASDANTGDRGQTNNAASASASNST
Sequence of Tie2 (h) (Q02763 771-1124 limits assumed): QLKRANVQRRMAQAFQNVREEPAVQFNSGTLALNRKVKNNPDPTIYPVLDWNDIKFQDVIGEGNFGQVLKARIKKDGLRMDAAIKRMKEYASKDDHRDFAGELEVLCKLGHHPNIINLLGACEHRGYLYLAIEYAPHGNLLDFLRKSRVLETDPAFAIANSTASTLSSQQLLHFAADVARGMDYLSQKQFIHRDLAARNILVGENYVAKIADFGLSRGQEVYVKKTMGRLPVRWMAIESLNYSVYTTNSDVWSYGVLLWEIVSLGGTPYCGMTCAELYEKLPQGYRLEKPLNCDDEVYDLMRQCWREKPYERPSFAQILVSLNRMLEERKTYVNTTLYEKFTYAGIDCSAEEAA
Sequence of PDGFRβ (h) (P09619 558-1106 limits assumed): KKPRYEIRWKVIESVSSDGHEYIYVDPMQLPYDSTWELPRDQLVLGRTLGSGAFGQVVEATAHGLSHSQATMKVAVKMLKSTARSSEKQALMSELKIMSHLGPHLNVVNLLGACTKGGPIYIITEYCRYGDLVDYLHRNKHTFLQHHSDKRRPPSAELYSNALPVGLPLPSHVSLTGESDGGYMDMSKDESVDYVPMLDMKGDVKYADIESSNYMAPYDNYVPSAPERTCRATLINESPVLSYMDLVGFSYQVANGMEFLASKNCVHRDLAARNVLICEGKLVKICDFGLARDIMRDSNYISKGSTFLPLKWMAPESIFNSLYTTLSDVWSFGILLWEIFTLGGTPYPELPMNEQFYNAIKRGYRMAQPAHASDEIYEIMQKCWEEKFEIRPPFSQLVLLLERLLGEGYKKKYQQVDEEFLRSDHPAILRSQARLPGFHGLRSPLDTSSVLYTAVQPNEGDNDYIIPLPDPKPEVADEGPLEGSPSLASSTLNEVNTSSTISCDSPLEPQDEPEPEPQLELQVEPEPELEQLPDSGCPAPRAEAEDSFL
Sequence of Abl (h) (P00519 27-1130 limits assumed): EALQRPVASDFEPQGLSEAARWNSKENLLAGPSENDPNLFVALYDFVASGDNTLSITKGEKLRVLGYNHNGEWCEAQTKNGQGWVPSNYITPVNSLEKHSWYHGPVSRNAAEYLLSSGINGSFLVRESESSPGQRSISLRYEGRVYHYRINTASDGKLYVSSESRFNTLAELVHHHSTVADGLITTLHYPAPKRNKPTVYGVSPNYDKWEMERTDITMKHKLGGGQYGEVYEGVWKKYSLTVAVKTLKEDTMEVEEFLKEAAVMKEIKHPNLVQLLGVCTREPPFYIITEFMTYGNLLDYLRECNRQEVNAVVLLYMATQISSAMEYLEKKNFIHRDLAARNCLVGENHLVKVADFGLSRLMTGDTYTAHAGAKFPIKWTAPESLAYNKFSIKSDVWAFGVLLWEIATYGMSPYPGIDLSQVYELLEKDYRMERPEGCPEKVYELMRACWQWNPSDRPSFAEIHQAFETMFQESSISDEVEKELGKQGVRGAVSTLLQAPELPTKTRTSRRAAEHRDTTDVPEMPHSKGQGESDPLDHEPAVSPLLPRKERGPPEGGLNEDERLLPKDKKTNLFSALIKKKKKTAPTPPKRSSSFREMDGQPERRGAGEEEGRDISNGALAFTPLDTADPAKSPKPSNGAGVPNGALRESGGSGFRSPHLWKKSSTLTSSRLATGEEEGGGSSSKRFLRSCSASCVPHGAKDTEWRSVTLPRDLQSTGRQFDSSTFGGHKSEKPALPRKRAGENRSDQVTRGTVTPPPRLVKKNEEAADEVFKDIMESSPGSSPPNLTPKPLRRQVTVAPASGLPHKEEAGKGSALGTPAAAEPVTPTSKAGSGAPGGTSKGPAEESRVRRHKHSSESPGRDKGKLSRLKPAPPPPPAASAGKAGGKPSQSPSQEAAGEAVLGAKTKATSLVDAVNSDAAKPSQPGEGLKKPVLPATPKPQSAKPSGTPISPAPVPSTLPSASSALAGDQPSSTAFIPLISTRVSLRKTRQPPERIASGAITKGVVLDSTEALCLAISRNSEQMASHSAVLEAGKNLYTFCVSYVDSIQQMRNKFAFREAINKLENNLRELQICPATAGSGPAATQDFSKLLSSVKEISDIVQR
Sequence of PKCδ (h) (Q05655 whole entry, stated change not applied): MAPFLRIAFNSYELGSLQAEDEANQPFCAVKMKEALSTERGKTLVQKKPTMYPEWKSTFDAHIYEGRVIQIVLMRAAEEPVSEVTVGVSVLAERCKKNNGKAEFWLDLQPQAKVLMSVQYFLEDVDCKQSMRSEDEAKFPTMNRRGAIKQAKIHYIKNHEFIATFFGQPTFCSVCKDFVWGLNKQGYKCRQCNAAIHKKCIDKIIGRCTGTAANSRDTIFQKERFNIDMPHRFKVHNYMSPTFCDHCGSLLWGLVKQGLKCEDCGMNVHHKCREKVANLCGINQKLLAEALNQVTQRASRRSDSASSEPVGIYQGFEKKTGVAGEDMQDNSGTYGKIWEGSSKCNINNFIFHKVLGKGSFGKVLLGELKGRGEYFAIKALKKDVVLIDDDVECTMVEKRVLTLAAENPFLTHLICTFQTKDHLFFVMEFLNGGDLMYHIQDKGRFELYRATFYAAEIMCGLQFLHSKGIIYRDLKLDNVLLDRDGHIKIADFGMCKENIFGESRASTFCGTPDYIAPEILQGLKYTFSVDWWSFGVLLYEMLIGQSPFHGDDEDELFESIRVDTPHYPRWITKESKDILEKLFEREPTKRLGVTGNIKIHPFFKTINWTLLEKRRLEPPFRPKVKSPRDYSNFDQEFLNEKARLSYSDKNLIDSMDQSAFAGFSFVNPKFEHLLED
Sequence of L1MK1 (h) (P53667 285-638 limits assumed): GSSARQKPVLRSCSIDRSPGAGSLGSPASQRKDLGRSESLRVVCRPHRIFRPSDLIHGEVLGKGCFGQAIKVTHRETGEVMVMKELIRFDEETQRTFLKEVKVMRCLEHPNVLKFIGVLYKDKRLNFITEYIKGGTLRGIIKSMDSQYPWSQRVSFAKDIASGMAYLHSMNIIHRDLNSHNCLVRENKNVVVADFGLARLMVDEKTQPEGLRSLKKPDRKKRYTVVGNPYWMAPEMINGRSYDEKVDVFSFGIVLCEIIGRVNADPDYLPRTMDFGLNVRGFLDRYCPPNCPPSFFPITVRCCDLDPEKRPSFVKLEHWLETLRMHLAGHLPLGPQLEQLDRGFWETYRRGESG

Take FAKLAARLYRKALARQLGVAA: the figures for the “Profile-1 @ = 100 µm (kinase profiler assay)” value (“Profile-1 @ = 100 µm” below) in [1] and in experiment [2] were 92 and 0, respectively.

In the case of KAFAKLAARLYRKALARQLGVAA, the “Profile-1 @ = 100 µm” value is 55 in experiment [3]; 118 in [4]; 79 in experiment [5]; -10 in experiment [6]; 184 in experiment [7]; 76 in experiment [8]. Moreover, the “Profile-1 @ = 100 µm” value stood at 16 in experiment [9]; 847 in [10]; 93 in experiment [11]; 114 in [12]; 24 in [13]; 148 in experiment [14]. Moreover, the “Profile-1 @ = 100 µm” value amounted to 59 in experiment [15], 3 in [16] and 4 in experiment [17].
